Earlier results, collected in publication PMC4618378.

Legend:
[1] = biological target: cone PDE6 gamma-subunit (Homo sapiens) (UniProt Q13956)
[2] = biological target: rod PDE6 gamma-subunit (Homo sapiens) (UniProt P18545)
UniProt P18545, sequence (P18545 whole entry): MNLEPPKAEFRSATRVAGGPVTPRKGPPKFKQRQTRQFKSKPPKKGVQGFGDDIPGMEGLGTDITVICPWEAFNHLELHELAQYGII

UniProt Q13956, sequence (Q13956 whole entry): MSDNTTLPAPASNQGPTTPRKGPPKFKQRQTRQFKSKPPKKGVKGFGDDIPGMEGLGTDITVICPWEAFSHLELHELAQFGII

## PDE6C (from UniProt P51160)
[1]
  Ki: 0.078 nM
[2]
  Ki: 0.155 nM
